Results reported in the supplement of paper PMC9170038.

System: MS2 coat protein
Test: apparent KD of MS2 coat protein; designed switch direction (-1 OFF switch, 1 ON switch): 1; higher = weaker reporter binding
Method in brief: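 Designed RNA switches with common flanks were transcribed on Illumina chips by stalled E. coli RNA polymerase and titrated with SNAP-549-labelled MS2 coat protein, from 0.7 or 1.5 nM doubling to 3 µM, in Tris-HCl pH 7.5 buffer with KCl, MgCl2, BSA, DTT, tRNA and Tween-20. Steps lasted 0.8–1.5 h (lowest) to 10–20 min (highest). Titrations ran without input, with 200 uM small-molecule ligand, or with an oligonucleotide input. Normalised cluster fluorescence was curve-fitted, and apparent KD is the per-design median over clusters.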

[1] = input ligand: microRNA oligo, concentration not stated
[2] = Eterna round: R95, input ligand: FMN 200 uM
[3] = Eterna round: R95, input ligand: microRNA oligo, concentration not stated
[4] = Eterna round: R95, input ligand: none

Sequence	apparent KD of MS2 coat protein [1] [nM]	apparent KD of MS2 coat protein (input ligand: FMN 200 uM) [nM]	apparent KD of MS2 coat protein (input ligand: none) [nM]	apparent KD of MS2 coat protein [2] [nM]	apparent KD of MS2 coat protein [3] [nM]	apparent KD of MS2 coat protein [4] [nM]
GUACAGAUCACAGGAUAUCACGUCGUUUAGACGUGAGAAGGGUGAUCACACAUGAAUAUUAAUACAUGAGGAUCACCCAUGUAC [SSNG1/16-A3] (Eterna round: R96, puzzle: Same State NG 1)	22.1					
GUACAGAUUAUAGGAUAUCACGUCGUUUAGACGUGAGAAGGAUAAUCACACAUGAAUAUUAAUACAUGAGGAUCACCCAUGUAC [SSNG1/17-A3] (Eterna round: R96, puzzle: Same State NG 1)	17.5	18.4	18.5			
GUACAUAUUAUAGGAUAUCACGUCGAAUAGACGUGAGAAGGAUAAUCCCACAUGAAUAUUAAUACAUGAGGAUCACCCAUGUAC [SSNG1/18-A1] (Eterna round: R96, puzzle: Same State NG 1)	49.7	42	49.2			
GUAGAUAUAACGGAGGAUAUUCAAUGAGAGACAUGAGGAUCACCCAUGUAAGAGUGAGAUGAUAGGAAGAAGGCUGAGAGAGAUG [Altered State 2-9 - Jieux - Same State 2] (puzzle: Same State 2)				140	139	102
GUAGCAUACCGAGGAUAUUCAUACAUGAGGAUCACCCAUGUUAUUAUAGGCCGAUUACGGCCUUGGGAGAAGGCGGAAUGCUAC [Xeonanis - 20 Mod28] (Eterna round: R96, puzzle: Same State NG 2)	11.4	13.1	16.1			
GUAGGACAUGAGGAUCACCCAUGUGGAGAGGAACGAGGAUAUGUGAGAGGAGUGCAGAGGACAGAAGGCGUGGAGG [JR_SS1_Sub027] (puzzle: Same State 1)				42.6	31.1	62.1
GUAUCUACAGGUUUUUUAGCUCGUCUGAUACAUGAGGAUCACCCAUGUUAUAGCCCUGUGCUUGCGCAGGGCUGAGG [Sensor for hsa-mir-208a ( MOD of Tearor v.4 )] (puzzle: Sensor for hsa-mir-208a)				47.6	34.1	49.3
GUCAGGCAAGCUUUUUUCUCGUAGUGUAAACAUGAGGAUCACCCAUGUGCUCGCCCUGGAUCUUUGGAUCCCAGAAA [Anedraus] (puzzle: Sensor for hsa-mir-208a)				40.2	21	41.9
GUGAAGAAUUAAGGAUAUCGAGUCAAGAUGUUAAACAUGAGGAUCACCCAUGUGGGUUGCGGUAUCGAGAAGGUAAAUUACAAG [salish99_SSNG2_r04_501] (Eterna round: R96, puzzle: Same State NG 2)	25.9	26.7	31.4			
GUGCAACCGUGUGAGGAUAUCGGUGAAUAAACAUGAGGAUCACCCAUGUCCGAAGCUCGGUUCUCCGAGAAGGCGCACAGUUGCA [Same State 2 - Mod of Erisin v.4] (puzzle: Same State 2)				23.8	116	159
GUGCUCGUGUGAGGAUAUGCUUCCGUUUCGGCUGCAGAAGGUACUAUUAUACAUGAGGAUCACCCAUGUCUCUUUUCUUCGGUG [salish99_SSNG1_r04_912] (Eterna round: R96, puzzle: Same State NG 1)	22.8					
GUGCUCGUGUGAGGAUAUGCUUCCGUUUCGGCUGCAGAAGGUACUAUUAUACAUGAGGAUCACCCAUGUCUCUUUUGUUUGGUG [salish99_SSNG1_r04_910] (Eterna round: R96, puzzle: Same State NG 1)	51.9	95	67.8			
GUGCUCGUGUGAGGAUAUGUUGCCGGGUCGGCUGCAGAAGGUACUAUUAUACAUGAGGAUCACCCAUGUCGCUUUUCUCCGGUG [salish99_SSNG1_r04_920] (Eterna round: R96, puzzle: Same State NG 1)	58.8	98.3	65.8			
GUGGCCCAGGCACAGGAUAUGUUUCUCGUAACAUGAGGAUCACCCAUGUGCCUAUGAGAUAUAAUGCAGAAGGGUGCACGCCACG [Mat - Same State 2 - Mod of UCT - D80] (puzzle: Same State 2)				16.2	68.2	60.9
GUGGCGGGUUGAGGAUAUUGGUUGCCUAUGUUUUACAUGAGGAUCACCCAUGUGGGUUGCGGUUUCGAGAAGGUAGGUUGCUGG [salish99_SSNG2_r04_047] (Eterna round: R96, puzzle: Same State NG 2)	228	420	347			
GUGGUCAGACAUGAGGAUCACCCAUGUGGAAUAAAUAACAGACAGGAUAUCCAAUAUAGGAUAUAGGAGAAGGGUCGAUUGGUG (Eterna round: R96, puzzle: Same State NG 3)	56.9					

Sequence	apparent KD of MS2 coat protein [1] [nM]	apparent KD of MS2 coat protein (input ligand: FMN 200 uM) [nM]	apparent KD of MS2 coat protein (input ligand: none) [nM]	apparent KD of MS2 coat protein [2] [nM]	apparent KD of MS2 coat protein [3] [nM]	apparent KD of MS2 coat protein [4] [nM]
GUGGUCAGACAUGAGGAUCACCCAUGUGGAAUAAAUAACGAACAGGAUAUGCAAUAUAGGAUAUAGUAGAAGGGUUGAUUGGUG (Eterna round: R96, puzzle: Same State NG 3)	82.4					
GUGGUCAGACAUGAGGAUCACCCAUGUGGAAUAAAUAACGGACAGGAUAUCGAAUAUAGGAUAUACGAGAAGGGUUGAUUGGUG (Eterna round: R96, puzzle: Same State NG 3)	53.9					
GUGGUCAGACAUGAGGAUCACCCAUGUGGAAUAAAUAAGGAAUAGGAUAUGGAAUAUAGGAUAUACCAGAAGGGUUGGUUGGUG (Eterna round: R96, puzzle: Same State NG 3)	73.4					
GUGGUCAGACAUGAGGAUCACCCAUGUGGAAUAAAUAAGGAGAAGGAUAUUAAAUAUAGGAUAUAUAAGAAGGUCUGGUUGGUG (Eterna round: R96, puzzle: Same State NG 3)	65.2					
GUGGUCAGACAUGAGGAUCACCCAUGUGGAAUAAAUAAGGUCAAGGAUAUUCAAUAUAGGAUAUAGAAGAAGGUGAGGUUGGUG (Eterna round: R96, puzzle: Same State NG 3)	108					
GUGGUUCUCGUAGGAUAUGUAGGAUAUGCCUACAUGAGGAUCACCCAUGUUCGCAUGGCAGAAGGACAGAAGGACGAUCACUAA [pwkr ssNG2 2FMN + 1F5.15] (Eterna round: R96, puzzle: Same State NG 2)	11.7	159	94.2			
GUUAAACAUGAGGAUCACCCAUGUAAUAUAAUGGGAGGAUAUCUGAAUUAAUUAAAUUAAGGAGAAGGCCUAAUUG [Mat - Same State 1 - Mod of Eli - D52] (puzzle: Same State 1)				42	181	255
GUUAAACAUGAGGAUCACCCAUGUAAUCAUAUGGGAGGAUAUGGGAAUUAAUUAAUUAAACCAGAAGGCCUAAUUG [Mat - Same State 1 - D83] (puzzle: Same State 1)				19.6	87.4	92.3
GUUACAUGAGGAUCACCCAUGUAUGUGUGGGAGUAAGUGUCUUAGGAUAUCUAGGAUUUAAUUUAAGAGAAGGAAGAUUGUUGU [JMF's solution 50] (Eterna round: R96, puzzle: Same State NG 3)	45.9	89.7	77.4			
GUUACAUGAGGAUCACCCAUGUAUGUGUGGGAGUAAGUGUCUUAGGAUAUCUAGUAUUUAAUUUGAGAGAAGGAAGAUUGUUGU [JMF's solution 70] (Eterna round: R96, puzzle: Same State NG 3)	83.9	138	147			
GUUACAUGAGGAUCACCCAUGUAUGUGUGGGAGUAAGUGUCUUAGGAUAUCUAGUAUUUUAUUUAAGAGAAGGAAGAUUGUUGU [JMF's solution 59] (Eterna round: R96, puzzle: Same State NG 3)	93.7	130	112			
GUUACAUGAGGAUCACCCAUGUGUGUGUGGGAGUGAGUGGCUUAGGAUAUCUAUGAUUUUAGUUAAGAGAAGGGAGAUUGUUGU [SS-NG3-LRO05] (Eterna round: R96, puzzle: Same State NG 3)	276	554	328			
GUUAUACAUGAGGAUCACCCAUGUCAAUGUAGUCGAGGAUAUGGGCAGCUAUGAGGCGUACUAGAAGGCGAGAAGU [Mat - Same State 1 - Mod of JL - D15] (puzzle: Same State 1)				125	268	437
UAAAAACAUGAGGAUCACCCAUGUGAAAAUAUGGGAGGAUAUACAAAGACGAGAGUCAAAGUAGAAGGCCUAAAAU [Mat - Same State 1 - Eli mod - D88] (Eterna round: R96, puzzle: Same State 1)	68.3	21.9	86.6			
UAACAGUACAAUUUAGAUCUACAUGAGGAUCACCCAUGUACUGAGGAUAUCAGCUCGUUUAGAGCUGAGAAGGCAGAAGAACUA [SSNG3/11-A3] (Eterna round: R96, puzzle: Same State NG 3)	154	39.7	218			
UACAAUCUAUCUCAGGAUAUCAUGUCAAAGACAUGAGGAUCACCCAUGUACCAGGAAACUGGUUAUGAGAAGGGAGAUAGAUUGA [Mat - Same State 2 - Mod - D25] (puzzle: Same State 2)				119	59.1	390
